Substitutions are numbered along the chain they refer to. In names and notes the source's numbering stands.
T1: murine D6 (murine, UniProt O08707 1-378)
T1 construct: Endogenous on B-end cells in the polyclonal antibody staining; also called murine D6 receptor; mouse D6
T1 sequence: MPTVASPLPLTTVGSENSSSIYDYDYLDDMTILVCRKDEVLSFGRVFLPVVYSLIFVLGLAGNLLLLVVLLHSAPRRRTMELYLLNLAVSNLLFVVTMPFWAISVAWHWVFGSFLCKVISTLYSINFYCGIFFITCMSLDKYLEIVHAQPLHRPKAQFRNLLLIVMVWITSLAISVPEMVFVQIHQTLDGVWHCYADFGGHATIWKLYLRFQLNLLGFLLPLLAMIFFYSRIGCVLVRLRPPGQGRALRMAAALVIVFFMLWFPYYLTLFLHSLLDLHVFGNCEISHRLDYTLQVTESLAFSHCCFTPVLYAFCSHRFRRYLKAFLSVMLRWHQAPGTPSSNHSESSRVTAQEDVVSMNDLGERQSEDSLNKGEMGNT

T2: human D6 (human, UniProt O00590 1-384)
T2 construct: Full-length human D6 expressed in CHO, Hos.CD4, HEK 293, K293 or L1.2 cells; Endogenous on THP-1 cells; also called human D6 receptor; wild type human D6
T2 sequence: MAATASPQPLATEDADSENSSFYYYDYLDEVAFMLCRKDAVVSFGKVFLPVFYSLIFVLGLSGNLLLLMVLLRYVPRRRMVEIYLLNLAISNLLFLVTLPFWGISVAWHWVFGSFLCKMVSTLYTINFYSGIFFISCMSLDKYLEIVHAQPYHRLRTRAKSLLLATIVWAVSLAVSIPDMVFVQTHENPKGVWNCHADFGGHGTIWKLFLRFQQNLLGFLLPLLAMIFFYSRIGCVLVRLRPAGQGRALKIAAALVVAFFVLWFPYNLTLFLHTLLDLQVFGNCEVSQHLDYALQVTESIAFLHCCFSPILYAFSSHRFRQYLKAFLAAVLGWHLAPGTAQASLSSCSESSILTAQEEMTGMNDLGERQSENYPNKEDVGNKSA

T3: human CCR5 (human, UniProt P51681 1-352 at identity 1.00))
T3 chain: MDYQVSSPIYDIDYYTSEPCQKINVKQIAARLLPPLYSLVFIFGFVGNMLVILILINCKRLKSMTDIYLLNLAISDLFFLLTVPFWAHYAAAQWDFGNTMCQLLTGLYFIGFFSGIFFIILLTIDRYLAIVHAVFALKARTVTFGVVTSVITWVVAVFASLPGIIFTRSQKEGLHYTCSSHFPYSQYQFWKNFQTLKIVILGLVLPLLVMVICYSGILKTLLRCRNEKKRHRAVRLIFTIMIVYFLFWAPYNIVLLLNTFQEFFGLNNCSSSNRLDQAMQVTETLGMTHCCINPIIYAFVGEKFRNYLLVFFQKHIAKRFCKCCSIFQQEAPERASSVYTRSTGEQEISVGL

B1: KC (ligand, UniProt P12850 25-96, looked up)
chain: APIANELRCQCLQTMAGIHLKNIQSLKVLPSGPHCTQTEVIATLKNGREACLDPEAPLVQKIVQKMLKGVPK
B2: human MCP-3 (ligand)
chain: not shown
notes: also called hMCP-3
B3: murine Eotaxin (ligand, UniProt P48298 24-97, looked up)
chain: HPGSIPTSCCFIMTSKKIPNTLLKSYKRITNNRCTLKAIVFKTRLGKEICADPKKKWVQDATKHLDQKLQTPKP
B4: murine MIP-1β (ligand, UniProt P14097 24-92, looked up)
chain: APMGSDPPTSCCFSYTSRQLHRSFVMDYYETSSLCSKPAVVFLTKRGRQICANPSEPWVTEYMSDLELN
notes: also called mMIP-1β; murine M1β
B5: murine MIP-1α (ligand, UniProt P10855 24-92, looked up)
chain: APYGADTPTACCFSYSRKIPRQFIVDYFETSSLCSQPGVIFLTKRNRQICADSKETWVQEYITDLELNA
modifications: also: radioiodinated (125I) when used as tracer
notes: also called mMIP-1α
B6: human MIP-1β (ligand, UniProt P13236 24-92, looked up)
chain: APMGSDPPTACCFSYTARKLPRNFVVDYYETSSLCSQPAVVFQTKRSKQVCADPSESWVQEYVYDLELN
B7: murine JE (ligand)
chain: not shown
notes: They are treated here as one protein (JE is the murine MCP-1); also called murine MCP-1
B8: human HCC1 (ligand, UniProt Q16627 20-93, looked up)
chain: TKTESSSRGPYHPSECCFTYTTYKIPRQRIMDYYETNSQCSKPGIVFITKRGHSVCTNPSDKWVQDYIKDMKEN
B9: human MCP-2 (ligand, UniProt P80075 24-99, looked up)
chain: QPDSVSIPITCCFNVINRKIPIQRLESYTRITNIQCPKEAVIFKTKRGKEVCADPKERWVRDSMKHLDQIFQNLKP
notes: also called hMCP-2
B10: human RANTES (ligand, UniProt P13501 24-91, looked up)
chain: SPYSSDTTPCCFAYIARPLPRAHIKEYFYTSGKCSNPAVVFVTRKNRQVCANPEKKWVREYINSLEMS
notes: also called hRANTES; HRANTES
B11: human Eotaxin (ligand)
chain: not shown
B12: human MIP-1α (ligand, UniProt P10147 24-92, looked up)
chain: SLAADTPTACCFSYTSRQIPQNFIADYFETSSQCSKPGVIFLTKRSRQVCADPSEEWVQKYVSDLELSA
notes: also called hMIP-1α
B13: murine MCP-5 (ligand, UniProt Q62401 23-104, looked up)
chain: GPDAVSTPVTCCYNVVKQKIHVRKLKSYRRITSSQCPREAVIFRTILDKEICADPKEKWVKNSINHLDKTSQTFILEPSCLG
notes: also called mMCP-5
B14: human MCP-4 (ligand)
chain: not shown
B15: human D6 mutant K142R, E145A (receptor)
chain: T2 sequence with K142R, E145A
notes: Expressed in HEK 293 cells; also called K142R,E145A mutant
B16: human D6 triple mutant N92D, K142R, E145A (receptor)
chain: T2 sequence with N92D, K142R, E145A
notes: Expressed in HEK 293 cells

target: T1, murine D6; assay: displacement of radiolabeled murine MIP-1α from murine D6 on transfected cells
Protocol: (§1) Stably transfected CHO cells were plated at 10^5 cells/well in 24-well plates and incubated overnight at 37° C. After washing with warm PBS, the cells were incubated in 250 μl of binding buffer (special liquid medium plus 10% fetal calf serum, 4 mM glutamine, 0.2% sodium azide, 25 mM HEPES (pH 7.4)) containing variable concentrations of radioiodinated MIP-1 and cold competitor chemokine. Binding proceeded for 90 minutes at 22° C., then each well washed three times in ice-cold PBS and the cell monolayer was then solubilized by the addition of 0.5 ml of 1% SDS. Lysed cells were transferred to a counting vial and bound radioactivity counted for 1 minute in Beckman Gamma 5500B counter. Each data point was assayed in triplicate and each experiment performed at least twice of accuracy. Data was analyzed using Scahot and Scafit programs in LIGAND software (Munson et al. (1980) Anal. Biochem. 107:220-239).

Row | binding result | Binder
1 | no binding | B1

target: T2, human D6; assay: displacement of 125I-murine MIP-1α by unlabeled chemokine on cells expressing human D6; LIGAND analysis
Protocol: as §1
The receptor binding assays were carried out as described above for the displacement analysis of murine D6 with cells being plated at 2×10⁵ cells/well in 24-well plates and incubated overnight at 37° C. prior to binding analysis.

Row | Kd [nM] | Binder
2 | 1.2 | B2
3 | 30 | B3
4 | 0.755 | B4
5 | 0.92 | B5
6 | 1.7 | B6
7 | 613 | B7
8 | 27.2 | B8
9 | 768 | B9
10 | 3.6 | B10
11 | 46 | B11
12 | 64 | B12
13 | 6.3 | B13
14 | 5.9 | B14

target: T1, murine D6; assay: competition with 125I-murine MIP-1α on CHO cells stably expressing murine D6; LIGAND analysis
Protocol: as §1

Row | Kd [nM] | Binder
15 | 5 | B2
16 | 0.77 | B4
17 | 0.26 | B6
18 | 1.5 | B7
19 | 2 | B10

Target: B16
Assay: cell-based or functional assay

Row | [Ca++] [nmol/L] | Binder
20 | 11.3 | B5
21 | 13.7 | B9

Target: T3, human CCR5
Assay: cell-based or functional assay

Row | [Ca++] [nmol/L] | Binder
22 | 412 | B12

Target: B15
Assay: cell-based or functional assay

Row | [Ca++] [nmol/L] | Binder
23 | 28.2 | B5
24 | 22.9 | B9
25 | 19.3 | B10

target: B5; assay: radioligand binding on transfected cells

Row | binding result | Binder
26 | binds | B15
27 | binds | B16

target: T1, murine D6; assay: binding assays on CHO cells expressing murine D6
Protocol: as §1

Row | binding result | Binder
28 | binds | B5

From US20030162943A1 (Takeda / Millennium, published 2003)
